± gives the uncertainty stated by the source.

The data set in a line: self-splicing fitness, log relative to wild type (ln ratio); higher = more splicing; Tetrahymena group I intron in knt gene, E. coli kanamycin selection, DiMSum; sequences stand for … in CUCUCU…GGAGGGAAAAGUUAUCAGGCAUGCACCUGGUAGCUAGUCUUUAAACCAAUAGAUUGCAUCGGUUUAAAAGGCAAGACCGUCAAAUUGCGGGAAAGGGGUCAACAGCCGUUCAGUACCAAGUCUCAGGGGAAACUUUGAGAUGGCCUUGCAAAGGGUAUGGUAAUAAGCUGACGGACAUGGUCCUAACCACGCAGCCAAGUCCUAAGUCAACAGAUCUUCUGUUGAUAUGGAUGCAGUUCACAGACUAAAUGUCGGUCGGGGAAGAUGUAUUCUUCUCAUAAGAUAUAGUCGGACCUCUCCUUAAUGGGAGCUAGCGGAUGAAGUGAUGCAACACUGGAGCCGCUGGGAACUAAUUUGUAUGCGAAAGUAUAUUGAUUAGUUUUGGAGUACUCGUGGUCG
The procedure, abridged:
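Colonies from six replicate transformations of E. coli BL21(DE3) were pooled and amplicon-sequenced on an Illumina HiSeq 2500. The library placed an intron with all eight P1ex-region nucleotides randomised inside the knt kanamycin-resistance gene on pET-22b(+), and cells grew overnight at 37°C or 30°C on LB agar with or without 25 μg/mL kanamycin (plus 100 μg/mL carbenicillin, 50 μM IPTG, 0.2% rhamnose). Fitness is the DiMSum error-weighted combination of wild-type-normalised replicate fold changes, kanamycin versus none.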

On to GAGAAGCAAUAUUACGCAUU, for which the “self-splicing fitness (ln)” value was -2.53 ± 0.12 (30 °C) and -2.08 ± 0.17 (37 °C).

As to GUAUAGCAAUAUUACGGAAA, the “self-splicing fitness (ln)” value is, setting by setting: (30 °C) -2.1 ± 0.43; (37 °C) -2.81 ± 0.32.

Regarding AAGCAGCAAUAUUACGCGCC, the “self-splicing fitness (ln)” value was -1.33 ± 0.11 (30 °C) and -1.24 ± 0.15 (37 °C).

GUCUAGCAAUAUUACGUAUU: the “self-splicing fitness (ln)” value is -0.645 ± 0.086 (30 °C) and -0.635 ± 0.095 (37 °C).

On to CGCCAGCAAUAUUACGGUAA, for which the “self-splicing fitness (ln)” value was -0.8 ± 0.069 (30 °C) and 0.0236 ± 0.072 (37 °C).

For the sequence AGGUAGCAAUAUUACGGGGG, the “self-splicing fitness (ln)” value (30 °C) was -3.715 ± 0.031 and the “self-splicing fitness (ln)” value (37 °C) is -2.94 ± 0.044.

For CUAGAGCAAUAUUACGGAUG, the “self-splicing fitness (ln)” value was -0.4 ± 0.095 (30 °C) and 0.311 ± 0.11 (37 °C).

With AAUUAGCAAUAUUACGUUCU, the “self-splicing fitness (ln)” value is -0.609 ± 0.077 (30 °C) and -0.522 ± 0.099 (37 °C).

For CAAAAGCAAUAUUACGUUGU, the “self-splicing fitness (ln)” value is -3.3 ± 0.11 (30 °C) and -2.4 ± 0.14 (37 °C).

Take GACUAGCAAUAUUACGUAUA: the “self-splicing fitness (ln)” value by setting is: (30 °C) -1.01 ± 0.11; (37 °C) -0.555 ± 0.13.

As to GUGAAGCAAUAUUACGACGG, the “self-splicing fitness (ln)” value is -0.531 ± 0.12 (30 °C) and -0.418 ± 0.23 (37 °C).

In the case of AGGAAGCAAUAUUACGUUAC, the “self-splicing fitness (ln)” value was -2.66 ± 0.14 (30 °C) and -3.18 ± 0.28 (37 °C).

GAAUAGCAAUAUUACGCCUU: the “self-splicing fitness (ln)” value is, setting by setting: (30 °C) -0.0381 ± 0.072; (37 °C) 0.111 ± 0.081.

Take UUAAAGCAAUAUUACGGUAU: the “self-splicing fitness (ln)” value is -2.14 ± 0.086 (30 °C) and -1.22 ± 0.11 (37 °C).

As for UGCCAGCAAUAUUACGUGUG, the “self-splicing fitness (ln)” value reads like this: (30 °C) -1.49 ± 0.052; (37 °C) -1.14 ± 0.071.

For UCCCAGCAAUAUUACGAGCU, the “self-splicing fitness (ln)” value (30 °C) was -3.05 ± 0.17 and the “self-splicing fitness (ln)” value (37 °C) is -2.18 ± 0.2.

Regarding CGUUAGCAAUAUUACGCGUG, the “self-splicing fitness (ln)” value by setting is: (30 °C) -1.3 ± 0.099; (37 °C) -1.36 ± 0.089.

Regarding GCCAAGCAAUAUUACGACCG, the “self-splicing fitness (ln)” value runs as follows: (30 °C) -3.81 ± 0.22; (37 °C) -2.01 ± 0.12.

Regarding CCCGAGCAAUAUUACGUCCG, the “self-splicing fitness (ln)” value (30 °C) is -2.11 ± 0.4 and the “self-splicing fitness (ln)” value (37 °C) was -1.98 ± 0.36.

With CAAAAGCAAUAUUACGUGUU, the “self-splicing fitness (ln)” value was -3.61 ± 0.13 (30 °C) and -2.37 ± 0.13 (37 °C).

UGCCAGCAAUAUUACGUGCA: the “self-splicing fitness (ln)” value is, setting by setting: (30 °C) -2.55 ± 0.1; (37 °C) -1.53 ± 0.12.

On to AAGAAGCAAUAUUACGUGGA, for which the “self-splicing fitness (ln)” value was -2.97 ± 0.12 (30 °C) and -2.44 ± 0.12 (37 °C).

With CUGCAGCAAUAUUACGUACA, the “self-splicing fitness (ln)” value reads like this: (30 °C) -2.96 ± 0.29; (37 °C) -1.43 ± 0.19.

With AUCCAGCAAUAUUACGGACA, the “self-splicing fitness (ln)” value by setting is: (30 °C) -0.527 ± 0.099; (37 °C) -0.096 ± 0.11.

As to CGAUAGCAAUAUUACGUACA, the “self-splicing fitness (ln)” value (30 °C) was -1.98 ± 0.13 and the “self-splicing fitness (ln)” value (37 °C) was -0.0364 ± 0.14.

AUCGAGCAAUAUUACGUUGG: the “self-splicing fitness (ln)” value runs as follows: (30 °C) -4.07 ± 0.42; (37 °C) -2.37 ± 0.31.

Regarding AUUCAGCAAUAUUACGAGCC, the “self-splicing fitness (ln)” value is, setting by setting: (30 °C) -2.87 ± 0.47; (37 °C) -1.67 ± 0.45.

Turning to GCCAAGCAAUAUUACGAUGU, the “self-splicing fitness (ln)” value (30 °C) is -0.536 ± 0.061 and the “self-splicing fitness (ln)” value (37 °C) was found to be 0.0237 ± 0.084.

On to GUUCAGCAAUAUUACGUAGC, for which the “self-splicing fitness (ln)” value is -0.047 ± 0.087 (30 °C) and -0.0432 ± 0.11 (37 °C).

On to UGGAAGCAAUAUUACGUGAU, for which the “self-splicing fitness (ln)” value (30 °C) was -2.32 ± 0.2 and the “self-splicing fitness (ln)” value (37 °C) is -1.67 ± 0.22.

Consider GACCAGCAAUAUUACGACAU, for which the “self-splicing fitness (ln)” value (30 °C) is -0.634 ± 0.011 and the “self-splicing fitness (ln)” value (37 °C) was -0.0858 ± 0.032.

Turning to ACCCAGCAAUAUUACGUUGA, the “self-splicing fitness (ln)” value is, setting by setting: (30 °C) -1.66 ± 0.073; (37 °C) -1.03 ± 0.075.

As for GCCAAGCAAUAUUACGAUUA, the “self-splicing fitness (ln)” value (30 °C) is -2.86 ± 0.17 and the “self-splicing fitness (ln)” value (37 °C) was -2.57 ± 0.15.

With CGAAAGCAAUAUUACGAAAU, the “self-splicing fitness (ln)” value was -2.32 ± 0.19 (30 °C) and -2.96 ± 0.24 (37 °C).

As to GUACAGCAAUAUUACGGUUA, the “self-splicing fitness (ln)” value is -0.862 ± 0.058 (30 °C) and -0.00855 ± 0.057 (37 °C).

Consider UACAAGCAAUAUUACGUCAG, for which the “self-splicing fitness (ln)” value is, setting by setting: (30 °C) -2.54 ± 0.14; (37 °C) -2 ± 0.15.

Turning to GGCGAGCAAUAUUACGAACU, the “self-splicing fitness (ln)” value by setting is: (30 °C) -1.3 ± 0.16; (37 °C) 0.292 ± 0.18.
